Assay results: article PMC4861916, “Characterization of a Citrus R2R3-MYB Transcription Factor that Regulates the Flavonol and Hydroxycinnamic Acid Biosynthesis”

B1: SlFLS promoter probe mutant (dsDNA)
DNA 1: CTTATATCGTCGACTCAACTTA
DNA 2: TAAGTTGAGTCGACGATATAAG
B2: CsCHS promoter probe WT (dsDNA)
DNA 1: TTGATTTAACCTACCCCCATTG
DNA 2: CAATGGGGGTAGGTTAAATCAA
B3: SlFLS promoter probe WT (dsDNA)
DNA 1: CTTATATCACCTACTCAACTTA
DNA 2: TAAGTTGAGTAGGTGATATAAG
B4: CsCHS promoter probe mutant (dsDNA)
DNA 1: TTGATTTCTAGAACCCCCATTG
DNA 2: CAATGGGGGTTCTAGAAATCAA
B5: Cs4CL promoter probe WT (dsDNA)
DNA 1: TTAACTGCACCTACCACACCCA
DNA 2: TGGGTGTGGTAGGTGCAGTTAA
B6: Cs4CL promoter probe mutant (dsDNA)
DNA 1: TTAACTGCTCTAGACACACCCA
DNA 2: TGGGTGTGTCTAGAGCAGTTAA

target: CsMYBF1 (Citrus, UniProt A0A125SL50 1-337); test: EMSA; 0.1% Nonidet P-40, 1 mM benzamidine, 0.5 mM PMSF, 0.5 mM DTT, 50 ug/mL BSA, 100 ng/uL poly(dI-dC), 5 uM Cy3 probe, 1 ug protein in 20 uL, 4 C 2 h; 6% PAGE in 0.5x TBE at 4 C; salt and pH not stated; settings: protein: recombinant; tags: His (pET28a); label: Cy3
Sequence (A0A125SL50 entry or part of it): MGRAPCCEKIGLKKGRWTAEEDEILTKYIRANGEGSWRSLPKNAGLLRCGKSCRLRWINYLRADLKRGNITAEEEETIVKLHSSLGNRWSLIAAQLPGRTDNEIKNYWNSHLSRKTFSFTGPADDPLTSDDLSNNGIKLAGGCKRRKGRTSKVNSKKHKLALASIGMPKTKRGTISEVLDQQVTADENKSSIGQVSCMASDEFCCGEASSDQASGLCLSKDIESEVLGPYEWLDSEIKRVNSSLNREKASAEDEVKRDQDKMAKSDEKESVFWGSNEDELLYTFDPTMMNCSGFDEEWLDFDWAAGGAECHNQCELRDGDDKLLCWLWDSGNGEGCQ

| Binder | binding result |
| --- | --- |
| B1 | no binding |
| B2 | binds |
| B3 | binds |
| B4 | no binding |
| B5 | binds |
| B6 | no binding |
